Results: paper PMC8497999 (iScience, 2021)

Tests used:
Assay in all cases: SEC
ACAD9-His6 E426Q = molecular target: T1, ACAD9-His6 E426Q (human, UniProt Q9H845 38-621, E426Q)
T1 sequence: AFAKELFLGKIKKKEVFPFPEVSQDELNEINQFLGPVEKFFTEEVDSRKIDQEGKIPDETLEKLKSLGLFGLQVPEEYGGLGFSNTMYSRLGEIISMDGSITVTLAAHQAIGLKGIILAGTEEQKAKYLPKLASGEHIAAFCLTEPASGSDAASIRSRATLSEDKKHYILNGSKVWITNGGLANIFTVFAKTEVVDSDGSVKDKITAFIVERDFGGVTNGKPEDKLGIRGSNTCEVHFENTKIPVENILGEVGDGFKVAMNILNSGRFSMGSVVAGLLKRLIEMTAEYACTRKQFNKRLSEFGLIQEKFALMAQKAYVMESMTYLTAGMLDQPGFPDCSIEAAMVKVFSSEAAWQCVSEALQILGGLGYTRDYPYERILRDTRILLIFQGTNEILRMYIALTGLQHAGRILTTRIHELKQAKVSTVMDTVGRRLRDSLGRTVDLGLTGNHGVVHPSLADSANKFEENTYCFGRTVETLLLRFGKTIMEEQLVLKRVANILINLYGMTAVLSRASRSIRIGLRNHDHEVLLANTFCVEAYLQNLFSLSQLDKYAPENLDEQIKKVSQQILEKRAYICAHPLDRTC

ACAD9-His6 R469W = molecular target: T2, ACAD9-His6 R469W (human, UniProt Q9H845 38-621, R469W)
T2 sequence: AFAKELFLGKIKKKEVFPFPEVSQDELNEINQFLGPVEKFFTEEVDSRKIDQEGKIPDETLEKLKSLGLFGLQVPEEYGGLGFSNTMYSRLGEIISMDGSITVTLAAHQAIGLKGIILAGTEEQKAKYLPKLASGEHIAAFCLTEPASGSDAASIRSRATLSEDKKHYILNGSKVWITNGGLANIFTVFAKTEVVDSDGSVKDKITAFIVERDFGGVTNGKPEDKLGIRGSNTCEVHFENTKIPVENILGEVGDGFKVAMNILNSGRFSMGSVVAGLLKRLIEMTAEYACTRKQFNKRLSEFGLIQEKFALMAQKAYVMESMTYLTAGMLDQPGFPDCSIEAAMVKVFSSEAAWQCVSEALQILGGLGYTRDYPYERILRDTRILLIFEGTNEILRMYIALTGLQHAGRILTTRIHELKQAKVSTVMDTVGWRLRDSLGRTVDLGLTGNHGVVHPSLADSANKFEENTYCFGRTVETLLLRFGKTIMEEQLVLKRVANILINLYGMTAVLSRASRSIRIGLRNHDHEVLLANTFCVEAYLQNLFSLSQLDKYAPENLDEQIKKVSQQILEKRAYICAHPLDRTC

ACAD9-His6 R532W = molecular target: T3, ACAD9-His6 R532W (human, UniProt Q9H845 38-621, R532W)
T3 sequence: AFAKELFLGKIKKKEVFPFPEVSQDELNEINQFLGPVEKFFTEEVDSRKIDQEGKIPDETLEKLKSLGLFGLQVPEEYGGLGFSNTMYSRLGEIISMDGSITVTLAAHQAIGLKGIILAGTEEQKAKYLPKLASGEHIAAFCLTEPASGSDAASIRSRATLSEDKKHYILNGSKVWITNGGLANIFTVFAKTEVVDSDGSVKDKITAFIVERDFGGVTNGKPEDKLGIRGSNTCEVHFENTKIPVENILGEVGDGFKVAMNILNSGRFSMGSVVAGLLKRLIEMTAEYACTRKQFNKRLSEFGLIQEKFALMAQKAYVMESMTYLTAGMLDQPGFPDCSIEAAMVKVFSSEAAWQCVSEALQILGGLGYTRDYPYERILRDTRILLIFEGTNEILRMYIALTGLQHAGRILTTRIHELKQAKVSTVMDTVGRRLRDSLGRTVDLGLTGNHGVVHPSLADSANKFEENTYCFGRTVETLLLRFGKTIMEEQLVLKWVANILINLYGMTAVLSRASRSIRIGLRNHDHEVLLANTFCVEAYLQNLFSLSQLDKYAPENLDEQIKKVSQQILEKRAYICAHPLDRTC

SEC = molecular target: the molecule itself

B1: His6-ECSIT (mature human mitochondrial ECSIT with N-terminal His tag) (natural protein)
chain: SSEQSLVPSPPEPRQRPTKALVPFEDLFGQAPGGERDKASFLQTVQKFAEHSVRKRGHIDFIYLALRKMREYGVERDLAVYNQLLNIFPKEVFRPRNIIQRIFVHYPRQQECGIAVLEQMENHGVMPNKETEFLLIQIFGRKSYPMLKLVRLKLWFPRFMNVNPFPVPRDLPQDPVELAMFGLRHMEPDLSARVTIYQVPLPKDSTGAADPPQPHIVGIQSPDQQAALARHNPARPVFVEGPFSLWLRNKCVYYHILRADLLPPEEREVEETPEEWNLYYPMQLDLEYVRSGWDNYEFDINEVEEGPVFAMCMAGAHDQATMAKWIQGLQETNPTLAQIPVVFRLAGSTRELQTSSAGLEEPPLPEDHQEEDDNLQRQQQGQS
binding result (ACAD9-His6 E426Q): binds
binding result (ACAD9-His6 R469W): binds
binding result (ACAD9-His6 R532W): binds
stoichiometry N (SEC): 2
